Measured values from PMC6719327 (Applied Microbiology and Biotechnology, 2019).
One block for each binder: values may come before it.

Legend:
Conditions in all cases: one partner purified
[1] = molecular target: T1, endothelin A receptor (ETaR) (Homo sapiens (assumed), UniProt P25101); experiment: flow cytometry on cells; purified scFv-His at 1 to 316 nM on ETaR-expressing CHO cells, 1 h at 4 °C; FITC-conjugated anti-His; Kd from the dose-response curve (GraphPad PRISM 5.0)
T1 construct: endothelin A receptor (ETaR), a GPCR; plasmid and cells were gifts from Gmax Biopharm LLC; also called GPCR; ETaR-expressing CHO cells; source: CHO cells stably expressing and displaying ETaR (provided by Gmax Biopharm LLC); on cells, and in vesicles prepared from them
T1 sequence (P25101 21-427): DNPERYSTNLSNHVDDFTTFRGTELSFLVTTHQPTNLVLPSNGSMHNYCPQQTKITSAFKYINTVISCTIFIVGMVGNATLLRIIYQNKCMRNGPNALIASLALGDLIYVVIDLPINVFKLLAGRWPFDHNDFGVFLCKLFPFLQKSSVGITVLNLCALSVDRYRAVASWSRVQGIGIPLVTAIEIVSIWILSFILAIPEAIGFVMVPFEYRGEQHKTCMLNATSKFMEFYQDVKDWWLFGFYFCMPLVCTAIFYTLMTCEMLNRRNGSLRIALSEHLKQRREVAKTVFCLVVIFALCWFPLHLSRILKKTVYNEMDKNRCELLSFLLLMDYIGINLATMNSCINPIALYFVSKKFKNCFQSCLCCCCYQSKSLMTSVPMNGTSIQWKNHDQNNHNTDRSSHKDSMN

[2] = molecular target: T1, endothelin A receptor (ETaR); experiment: flow cytometry on cells; competition: unlabelled scFv at 0.01 to 316 nM against FITC-labeled wild-type anti-GPCR at L = 150 nM on ETaR-expressing CHO cells, 1 h at 4 °C; Ki = IC50/(1 + L/Kd)
[3] = molecular target: T1, endothelin A receptor (ETaR); experiment: flow cytometry on cells; Ki of purified scFv-Fc on ETaR-expressing cells; tracer and L not told for this format
[4] = molecular target: T2, ETaR-GFP (UniProt P25101); experiment: flow cytometry on cells; cells expressing ETaR-GFP incubated with purified scFv-His for 30 min, then anti-his-PE antibody (Fig. 4b)
T2 construct: endothelin A receptor (ETaR) with GFP fused to its C-terminus (in cytosol); also called ETaR cells; ETaR-GFP cells; source: CHO cells stably expressing ETaR-GFP (provided by Gmax Biopharm LLC; clone S-33 for vesicles); on cells, and in vesicles prepared from them; not shown: GFP, C-terminal, kept
T2 sequence (P25101 21-427): as above

[5] = molecular target: T2, ETaR-GFP; experiment: flow cytometry on cells; cells stably expressing ETaR-GFP incubated with purified full-length or scFv-Fc antibodies for 30 min, then PE-conjugated anti-IgG (Fig. 4c, 4d, 5b)
[6] = molecular target: T1, endothelin A receptor (ETaR); experiment: flow cytometry on cells; competition of unlabelled full-length antibodies, obtained similarly as for scFv; L = 13 nM; Ki = IC50/(1 + L/Kd)
[7] = molecular target: T1, endothelin A receptor (ETaR); experiment: flow cytometry on cells; purified full-length antibodies titrated on ETaR-expressing CHO cells as for scFv; PE-conjugated anti-IgG; Kd from the dose-response curve
[8] = molecular target: T1, endothelin A receptor (ETaR); experiment: flow cytometry on cells; competition of unlabelled full-length antibodies, obtained similarly as for scFv; L = 13 nM; Ki = IC50/(1 + L/Kd); remark: listed apart in the source

- Kd [1]: 169 nM
- IC50 [2]: 568 nM
- Ki [2]: 300 nM
B1: anti-GPCR (ETaR) antibody 80H4, scFv-His, wild type (scFv, V domains shown)
VH: EVQLLESGGGLVQPGGSLRLSCAASGFTFSSYGMSWVRQAPGKGLEWVSAISTNGATAYYADSVKGRFTISRDNSKNTLYLQMNSLRAEDTAVYYCATEKGAMGYWGQGTLVTVSS
VL: DIVMTQTPLSLSVTPGQPASISCRSSQNIVHSTGNTYLEWYLQKPGQSPQLLIYKVSNRFSGVPDRFSGSGSGTDFTLKISRVEAEDVGVYYCFQGSHFPFTFGQGTKVEIK
notes: heavy-chain variable region of 80H4; (G4S)3 linker; light-chain variable region of 80H4; Order HV-(G4S)3-LV; made with a signal peptide (SP); also called WT; anti-GPCR-scFv-His; source: Expi293F, transfected, purified from supernatant (Ni-NTA); not shown: His tag, C-terminal, kept

- Ki [3]: 40.2 nM
B2: anti-GPCR (ETaR) antibody 80H4, scFv-Fc, mutant T113A-V64M-N28Y (Fc fusion)
VH: EVQLLESGGGLVQPGGSLRLSCAASGFTFSSYGMSWVRQAPGKGLEWVSAISTNGATAYYADSMKGRFTISRDNSKNTLYLQMNSLRAEDTAVYYCATEKGAMGYWGQGTLVAVSS
VL: DIVMTQTPLSLSVTPGQPASISCRSSQYIVHSTGNTYLEWYLQKPGQSPQLLIYKVSNRFSGVPDRFSGSGSGTDFTLKISRVEAEDVGVYYCFQGSHFPFTFGQGTKVEIK
notes: heavy-chain variable region as in m3; (G4S)3 linker; light-chain variable region as in m3; also called mutant scFv-Fc; source: Expi293F, transfected, purified from supernatant (Protein A); not shown: Fc, C-terminal, kept

- binding result [4]: binds
B3: anti-GPCR (ETaR) antibody 80H4, scFv-His, mutant T113A-R38Q (scFv, V domains shown)
VH: EVQLLESGGGLVQPGGSLRLSCAASGFTFSSYGMSWVQQAPGKGLEWVSAISTNGATAYYADSVKGRFTISRDNSKNTLYLQMNSLRAEDTAVYYCATEKGAMGYWGQGTLVAVSS
VL: DIVMTQTPLSLSVTPGQPASISCRSSQNIVHSTGNTYLEWYLQKPGQSPQLLIYKVSNRFSGVPDRFSGSGSGTDFTLKISRVEAEDVGVYYCFQGSHFPFTFGQGTKVEIK
notes: heavy-chain variable region as in m3; (G4S)3 linker; light-chain variable region as in m3; also called T113A-R38Q scFv-His; source: Expi293F, transfected, purified from supernatant (Ni-NTA); not shown: His tag, C-terminal, kept

- binding result [5]: binds
B4: anti-GPCR (ETaR) antibody 80H4, full-length, mutant with six mutations (S115N-S30R-D73H combined with T113A-V64M-N28Y) (antibody, V domains shown)
VH: EVQLLESGGGLVQPGGSLRLSCAASGFTFRSYGMSWVRQAPGKGLEWVSAISTNGATAYYADSMKGRFTISRHNSKNTLYLQMNSLRAEDTAVYYCATEKGAMGYWGQGTLVAVNS
VL: DIVMTQTPLSLSVTPGQPASISCRSSQYIVHSTGNTYLEWYLQKPGQSPQLLIYKVSNRFSGVPDRFSGSGSGTDFTLKISRVEAEDVGVYYCFQGSHFPFTFGQGTKVEIK
notes: heavy-chain variable region as the heavy chain of m13; heavy-chain constant region as in m13; light-chain variable region as the light chain of m13; light-chain constant region as in m13; also called the mutant with these six mutations; the full-length antibody clone containing the 6 point mutations; source: Expi293F, heavy and light chains co-expressed, purified from supernatant (Protein A); …

- IC50 [6]: 22.4 nM
- Ki [6]: 10.2 nM
- Kd [7]: 10.8 nM
B5: anti-GPCR (ETaR) antibody 80H4, full-length, mutant S115N-S30R (antibody, V domains shown)
VH: EVQLLESGGGLVQPGGSLRLSCAASGFTFRSYGMSWVRQAPGKGLEWVSAISTNGATAYYADSVKGRFTISRDNSKNTLYLQMNSLRAEDTAVYYCATEKGAMGYWGQGTLVTVNS
VL: DIVMTQTPLSLSVTPGQPASISCRSSQNIVHSTGNTYLEWYLQKPGQSPQLLIYKVSNRFSGVPDRFSGSGSGTDFTLKISRVEAEDVGVYYCFQGSHFPFTFGQGTKVEIK
notes: heavy-chain variable region as the heavy chain of m13; heavy-chain constant region as in m13; light-chain variable region as the light chain of m13; light-chain constant region as in m13; source: Expi293F, heavy and light chains co-expressed, purified from supernatant (Protein A); copies: 2 + 2

- Ki [3]: 251 nM
B6: anti-GPCR (ETaR) antibody 80H4, scFv-Fc, wild type (Fc fusion)
VH: EVQLLESGGGLVQPGGSLRLSCAASGFTFSSYGMSWVRQAPGKGLEWVSAISTNGATAYYADSVKGRFTISRDNSKNTLYLQMNSLRAEDTAVYYCATEKGAMGYWGQGTLVTVSS
VL: DIVMTQTPLSLSVTPGQPASISCRSSQNIVHSTGNTYLEWYLQKPGQSPQLLIYKVSNRFSGVPDRFSGSGSGTDFTLKISRVEAEDVGVYYCFQGSHFPFTFGQGTKVEIK
notes: heavy-chain variable region as in m3; (G4S)3 linker; light-chain variable region as in m3; also called wild-type scFv-Fc; anti-GPCR-scFv-Fc; source: Expi293F, transfected, purified from supernatant (Protein A); not shown: Fc, C-terminal, kept

- IC50 [6]: 50.1 nM
- Ki [6]: 31.3 nM
- Kd [7]: 21.5 nM
B7: anti-GPCR (ETaR) antibody 80H4, full-length, wild type (antibody, V domains shown)
VH: EVQLLESGGGLVQPGGSLRLSCAASGFTFSSYGMSWVRQAPGKGLEWVSAISTNGATAYYADSVKGRFTISRDNSKNTLYLQMNSLRAEDTAVYYCATEKGAMGYWGQGTLVTVSS
VL: DIVMTQTPLSLSVTPGQPASISCRSSQNIVHSTGNTYLEWYLQKPGQSPQLLIYKVSNRFSGVPDRFSGSGSGTDFTLKISRVEAEDVGVYYCFQGSHFPFTFGQGTKVEIK
notes: heavy-chain variable region of 80H4; heavy-chain constant region (HC); labelled by anti-human IgG; light-chain variable region of 80H4; light-chain constant region (LC); also called WT; full-length wild-type antibody; source: Expi293F, heavy and light chains co-expressed, purified from supernatant (Protein A); copies: 2 + 2

- Kd [1]: 87 nM
- IC50 [2]: 227 nM
- Ki [2]: 83.4 nM
B8: anti-GPCR (ETaR) antibody 80H4, scFv-His, mutant T113A-V64M (scFv, V domains shown)
VH: EVQLLESGGGLVQPGGSLRLSCAASGFTFSSYGMSWVRQAPGKGLEWVSAISTNGATAYYADSMKGRFTISRDNSKNTLYLQMNSLRAEDTAVYYCATEKGAMGYWGQGTLVAVSS
VL: DIVMTQTPLSLSVTPGQPASISCRSSQNIVHSTGNTYLEWYLQKPGQSPQLLIYKVSNRFSGVPDRFSGSGSGTDFTLKISRVEAEDVGVYYCFQGSHFPFTFGQGTKVEIK
notes: heavy-chain variable region as in m3; (G4S)3 linker; light-chain variable region as in m3; source: Expi293F, transfected, purified from supernatant (Ni-NTA); not shown: His tag, C-terminal, kept

- Kd [1]: 83.5 nM
- IC50 [2]: 210 nM
- Ki [2]: 75.1 nM
B9: anti-GPCR (ETaR) antibody 80H4, scFv-His, mutant N28Y (scFv, V domains shown)
VH: EVQLLESGGGLVQPGGSLRLSCAASGFTFSSYGMSWVRQAPGKGLEWVSAISTNGATAYYADSVKGRFTISRDNSKNTLYLQMNSLRAEDTAVYYCATEKGAMGYWGQGTLVTVSS
VL: DIVMTQTPLSLSVTPGQPASISCRSSQYIVHSTGNTYLEWYLQKPGQSPQLLIYKVSNRFSGVPDRFSGSGSGTDFTLKISRVEAEDVGVYYCFQGSHFPFTFGQGTKVEIK
notes: as for B8

- IC50 [6]: 16 nM
- Ki [6]: 6.2 nM
- Kd [7]: 8.27 nM
B10: anti-GPCR (ETaR) antibody 80H4, full-length, mutant S115N-S30R-D73H (antibody, V domains shown)
VH: EVQLLESGGGLVQPGGSLRLSCAASGFTFRSYGMSWVRQAPGKGLEWVSAISTNGATAYYADSVKGRFTISRHNSKNTLYLQMNSLRAEDTAVYYCATEKGAMGYWGQGTLVTVNS
VL: DIVMTQTPLSLSVTPGQPASISCRSSQNIVHSTGNTYLEWYLQKPGQSPQLLIYKVSNRFSGVPDRFSGSGSGTDFTLKISRVEAEDVGVYYCFQGSHFPFTFGQGTKVEIK
notes: heavy-chain variable region as the heavy chain of m13; heavy-chain constant region as in m13; light-chain variable region as the light chain of m13; light-chain constant region as in m13; also called S115N-D73H-S30R; source: Expi293F, heavy and light chains co-expressed, purified from supernatant (Protein A); copies: 2 + 2

- Kd [1]: 22.4 nM
- IC50 [2]: 170 nM
- Ki [2]: 22.1 nM
B11: anti-GPCR (ETaR) antibody 80H4, scFv-His, mutant T113A-V64M-N28Y (scFv, V domains shown)
VH: EVQLLESGGGLVQPGGSLRLSCAASGFTFSSYGMSWVRQAPGKGLEWVSAISTNGATAYYADSMKGRFTISRDNSKNTLYLQMNSLRAEDTAVYYCATEKGAMGYWGQGTLVAVSS
VL: DIVMTQTPLSLSVTPGQPASISCRSSQYIVHSTGNTYLEWYLQKPGQSPQLLIYKVSNRFSGVPDRFSGSGSGTDFTLKISRVEAEDVGVYYCFQGSHFPFTFGQGTKVEIK
notes: heavy-chain variable region as in m3; (G4S)3 linker; light-chain variable region as in m3; Combination of N28Y and T113A-V64M made by the authors; source: Expi293F, transfected, purified from supernatant (Ni-NTA); not shown: His tag, C-terminal, kept

- binding result [4]: binds
B12: anti-GPCR (ETaR) antibody 80H4, scFv-His, mutant R38Q (scFv, V domains shown)
VH: EVQLLESGGGLVQPGGSLRLSCAASGFTFSSYGMSWVQQAPGKGLEWVSAISTNGATAYYADSVKGRFTISRDNSKNTLYLQMNSLRAEDTAVYYCATEKGAMGYWGQGTLVTVSS
VL: DIVMTQTPLSLSVTPGQPASISCRSSQNIVHSTGNTYLEWYLQKPGQSPQLLIYKVSNRFSGVPDRFSGSGSGTDFTLKISRVEAEDVGVYYCFQGSHFPFTFGQGTKVEIK
notes: as for B8

- IC50 [6]: 30.6 nM
- Ki [6]: 15.7 nM
- Kd [7]: 13.6 nM
B13: anti-GPCR (ETaR) antibody 80H4, full-length, mutant D73H (antibody, V domains shown)
VH: EVQLLESGGGLVQPGGSLRLSCAASGFTFSSYGMSWVRQAPGKGLEWVSAISTNGATAYYADSVKGRFTISRHNSKNTLYLQMNSLRAEDTAVYYCATEKGAMGYWGQGTLVTVSS
VL: DIVMTQTPLSLSVTPGQPASISCRSSQNIVHSTGNTYLEWYLQKPGQSPQLLIYKVSNRFSGVPDRFSGSGSGTDFTLKISRVEAEDVGVYYCFQGSHFPFTFGQGTKVEIK
notes: as for B5

- Ki [8]: 15.6 nM
B14: anti-GPCR (ETaR) antibody 80H4, full-length, mutant T113A-V64M-N28Y (antibody, V domains shown)
VH: EVQLLESGGGLVQPGGSLRLSCAASGFTFSSYGMSWVRQAPGKGLEWVSAISTNGATAYYADSMKGRFTISRDNSKNTLYLQMNSLRAEDTAVYYCATEKGAMGYWGQGTLVAVSS
VL: DIVMTQTPLSLSVTPGQPASISCRSSQYIVHSTGNTYLEWYLQKPGQSPQLLIYKVSNRFSGVPDRFSGSGSGTDFTLKISRVEAEDVGVYYCFQGSHFPFTFGQGTKVEIK
notes: heavy-chain variable region as the heavy chain of m13; heavy-chain constant region as in m13; light-chain variable region as the light chain of m13; light-chain constant region as in m13; also called T113A-V64M-N28Y mutant full-length antibody; source: Expi293F, heavy and light chains co-expressed, purified from supernatant (Protein A); copies: 2 + 2
